Reference: the supplement of paper PMC9233669
Fewer inactive variants are shown than the library holds.

What was measured:
biotinyl-Phe-oxazolone = test: self-aminoacylation, catalytic enhancement (BFO) (fold over background); higher = more active; k-Seq, kA / k0A0; sequences stand for … in GGGAAUGGAUCCACAUCUACGAAUUC…UUCACUGCAGACUUGACGAAGCUG
Method in brief: (§1)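 Working in 50 μL HEPES/NaCl/KCl/MgCl2/CaCl2 buffer with 5% acetonitrile at pH 6.9–7.0, mutagenized RNA pools (0.43 μM; 21-nt variable region) were reacted with 2–1250 μM of each biotinyl-aminoacyl-oxazolone for 90 minutes at room temperature. Streptavidin capture followed, with quantification by triplicate qPCR and Illumina sequencing. Catalytic enhancement is reported as median kA over the uncatalyzed rate, the low-activity peak of a bimodal Gaussian fit to the data.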

biotinyl-Ile-oxazolone = test: self-aminoacylation, catalytic enhancement (BIO) (fold over background); higher = more active; k-Seq, kA / k0A0; sequences stand for … in GGGAAUGGAUCCACAUCUACGAAUUC…UUCACUGCAGACUUGACGAAGCUG
Method in brief: as §1

biotinyl-Met-oxazolone = test: self-aminoacylation, catalytic enhancement (BMO) (fold over background); higher = more active; k-Seq, kA / k0A0; sequences stand for … in GGGAAUGGAUCCACAUCUACGAAUUC…UUCACUGCAGACUUGACGAAGCUG
Method in brief: as §1

biotinyl-Val-oxazolone = test: self-aminoacylation, catalytic enhancement (BVO) (fold over background); higher = more active; k-Seq, kA / k0A0; sequences stand for … in GGGAAUGGAUCCACAUCUACGAAUUC…UUCACUGCAGACUUGACGAAGCUG
Method in brief: as §1

biotinyl-Leu-oxazolone = test: self-aminoacylation, catalytic enhancement (BLO) (fold over background); higher = more active; k-Seq, kA / k0A0; sequences stand for … in GGGAAUGGAUCCACAUCUACGAAUUC…UUCACUGCAGACUUGACGAAGCUG
Method in brief: as §1

biotinyl-Trp-oxazolone = test: self-aminoacylation, catalytic enhancement (BWO) (fold over background); higher = more active; k-Seq, kA / k0A0; sequences stand for … in GGGAAUGGAUCCACAUCUACGAAUUC…UUCACUGCAGACUUGACGAAGCUG
Method in brief: as §1

Sequence	self-aminoacylation (biotinyl-Phe-oxazolone)	self-aminoacylation (biotinyl-Ile-oxazolone)	self-aminoacylation (biotinyl-Met-oxazolone)	self-aminoacylation (biotinyl-Val-oxazolone)	self-aminoacylation (biotinyl-Leu-oxazolone)	self-aminoacylation (biotinyl-Trp-oxazolone)
GCACACUUCCAGCAAUCGGUC [Fam1B.1 aminoacylation ribozyme variant]	1.1	2.01	1.55	2.31	1.73	2.11
GCCCACUUCAAGCAAUCGGUC [Fam1B.1 aminoacylation ribozyme variant]	24.1	1.42	1.27	1.67	1.77	18.7
GCUCACUUCAAGCAAUCGGUC [Fam1B.1 aminoacylation ribozyme variant]	16.7	1.69	1.58	1.67	1.77	10.9
GGACUUCAAACAAUCGGUCUG [Fam1A.1 aminoacylation ribozyme variant]	122	2.34	2	1.88	2.75	47.1
GGUACCCUGGUCAUCGAGUGA [Fam2.1 aminoacylation ribozyme variant]	38.7	6.93	11.2	6.65	12.6	16.4
GUAAUUCAAACAAUCGGUCUG [Fam1A.1 aminoacylation ribozyme variant]	2.5	1.05	0.925	0.938	0.967	2.11
GUACUCCAAACAAUCGGUCUG [Fam1A.1 aminoacylation ribozyme variant]	2.05	1.06	0.967	1.04	0.944	1.84
GUACUUCAAACAAGCGGUCUG [Fam1A.1 aminoacylation ribozyme variant]	5.04	1.78	1.42	1.49	1.63	2.06
GUACUUCAAACAAUCGAUCUG [Fam1A.1 aminoacylation ribozyme variant]	1.72	1.18	0.863	0.987	0.862	1.64
GUACUUCAAACAAUCGGUCUG [Fam1A.1 aminoacylation ribozyme variant]	51.3	1.54	1.53	1.42	2.15	30.5
GUACUUCAAACGAUCGGUCUG [Fam1A.1 aminoacylation ribozyme variant]	1.38	1.14	1.13	1.08	1.32	1.8
GUACUUCAAAGAAUCGGUCUG [Fam1A.1 aminoacylation ribozyme variant]	3.28	1.26	1.07	1.24	1.46	4.9
GUUACCCGGGUCAUCGAGUGA [Fam2.1 aminoacylation ribozyme variant]	62.8	4.5	8.11	4.77	9.84	8.97
GUUACCCUGAUCAUCGAGUGA [Fam2.1 aminoacylation ribozyme variant]	32.3	3.61	8.85	4.23	9.43	11.1
GUUACCCUGGACAUCGAGUGA [Fam2.1 aminoacylation ribozyme variant]	48	4.6	8.05	4.58	9.14	9.84
GUUACCCUGGUCACCGAGUGA [Fam2.1 aminoacylation ribozyme variant]	79.2	5.31	11.2	6.95	13.1	14.8
GUUACCCUGGUCAUCGAGAGA [Fam2.1 aminoacylation ribozyme variant]	2.82	1.32	2.96	1.74	1.9	3.07
GUUACCCUUGUCAUCGAGUGA [Fam2.1 aminoacylation ribozyme variant]	48.1	4.41	8.39	4.44	8.14	10.7
GUUAUCCUGGUCAUCGAGUGA [Fam2.1 aminoacylation ribozyme variant]	16.1	6.24	10.9	5.41	9.81	13.1
GUUCACCUAGGUCACCGGGUG [Fam2.2 aminoacylation ribozyme variant]	28.5	4.06	3.6	3.55	5.53	6.73
GUUCACCUAGGUCAUCCGGUG [Fam2.2 aminoacylation ribozyme variant]	45.4	5.36	6.69	5.33	6.89	7.53
GUUCACCUAGGUCAUCGGGCG [Fam2.2 aminoacylation ribozyme variant]	4.6	2.98	4.01	3.11	5.06	4.17
GUUCACCUAGGUCAUCGGGUG [Fam2.2 aminoacylation ribozyme variant]	180	13.7	25.5	12.5	32.5	20.1
